Laboratory results as given in patent publication US20160326233A1.

Biological target: HBsAg on purified human serum HBV (virions used in the Tupaia hepatocyte neutralization assay) (Hepatitis B virus)
Test: cell-based or functional assay

- neutralization of HBV infection of primary Tupaia hepatocytes (newly produced HBsAg): 100 µg/mL
- neutralization of HBV infection of primary Tupaia hepatocytes (newly produced HBsAg) (reciprocal dilution): 10
Substance: mouse monoclonal antibody MA18/7
